Results on 30 sequences are retold here after the nanobody polyreactivity screen of Harvey et al. (2022).

This series is described as follows: yeast display, Sf9 membrane polyspecificity reagent, FACS + sequencing; frameworks hold sequencing errors. A digest of the protocol: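 Nanobodies came from a synthetic yeast display library in Saccharomyces cerevisiae BJ5465, induced with galactose for 36–48 hours and stained for 1 hour at 4 °C with 10% biotinylated, detergent-solubilized Sf9 membrane reagent. Cells were enriched on streptavidin microbeads and then FACS-sorted, with low and high (top ~1%) gates set on anti-HA fluorescence for expression and streptavidin fluorescence for reagent binding. Each polyreactivity label reflects the gate a clone came from. Genes were amplified by colony PCR, sequenced by MiSeq 2 × 250 and filtered by CDR length.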
As for “QVQLVESGGGLVQAGGSLRIRCAASGRIFPYYAMGWYRQAPGKERDLVATITSGGSTYYADTVKGRFTISRDNSKNTVYLQMKSLKPEDTAVYYCAARYPSIYYYRYDFWGQGTQVTVSS”, the “polyreactivity (PSR sort gate)” value is reported as “high polyreactivity”.

Consider “QVQLVESGGGLVQAGGTLRLSCAASGRIFSGYVMGWYRPAPGKERELVAVISRSGGSTYYADSVKGRFTISRDNAKNTVYLQMNSLKPEDTAVDYCAAKHIDGSRGYDYWGQGTQVTVSS”, for which the “polyreactivity (PSR sort gate)” value is given as “low polyreactivity”.

For the sequence “QVQLVESGGGLVQAGGSLRLSCAASGSIFLPYAMGWNRQAPGKERELVAAITWSGGRTYYADSVKGRFTISRDNAKNTVYLQMNSLKPEDTAVYYCAADDSEGFDYWGQGTQVTVSS”, the “polyreactivity (PSR sort gate)” value is “high polyreactivity”.

With “QVQLVESGGGLVQAGGSLRLSCASSGITFYVYAMGWYRQAPGKERELVASISWNGGRTYYADSVKGRFTISRDNAKNTVYLQMNSLKPEDTAVYYCAARAYSYWSGLDYWGQGTQVTVSS”, the “polyreactivity (PSR sort gate)” value is listed as “high polyreactivity”.

With “QVQLVESGGGLVQAGGSLRISWAASGFTFYTYMGWYRQAPGKERELVAAISWSGDSTYYADSVKGRFTISRDNAKNTVYLQMNSLKPEDTAVYYCIADHGGSRYDYWGQGTQVTVSS”, the “polyreactivity (PSR sort gate)” value is given as “low polyreactivity”.

With “QVQLEESGGGLVQEGGSLRLSCAASGRTFYYYDMGWYRQAPGKERELVAAITWSGGSTYYADSVKGRFTISRDNAKNTVYLQRNCLKREDTAVYYCAADVTYSRYEYWGQGSQVTVSS”, the “polyreactivity (PSR sort gate)” value is given as “low polyreactivity”.

Consider “QVQLVESGGGLVQAGGSLRLSCAASGSIFTPNAMGGYRQAPGKERELVAAISSSSDRTYYADSVKGRFTISRDNAKNTVYLQMNRLKPEDTAVYYCAAYAQKRYYWGQGTQVTVSS”, for which the “polyreactivity (PSR sort gate)” value was “high polyreactivity”.

In the case of “QVQLVESGGGLVQAGGSLRLSCAASGFTFAYIAMGWYRQAPGKERELVAAITVSGGRTYYADTVKGRFTISRDNAKNTVYLQMYSLKPEDTAVYYCAATVRVRTNSWMDYWGQGTQVTVSS”, the “polyreactivity (PSR sort gate)” value is “low polyreactivity”.

“QVQLVESGGGLVQAGGSLRLSCAASGRIFRYYAMGWYRQPPGKERELVAAISSSGGRTYYADSVKGRFTISRDNAKNTVYLQMNSLKPEDTAVYYCAADAPNFGLYRDKDYDYWGQGTQVTVSS”: the “polyreactivity (PSR sort gate)” value is “high polyreactivity”.

Turning to “QGQRVESGGGLVQAGGSLRLSCAASGSTFEDNAMGWSRPAPGKERELVAAITTGGGSTYYADSVKGRFTISRDNAKNTVYLQMNSLKPEDTAVYYCAADWSYYYSRNYESDYWGQGTQVTVSS”, the “polyreactivity (PSR sort gate)” value is given as “low polyreactivity”.

For “QVQLVESGGGLVQAGGSLRLSCAASGLIFSLNAMGWYRHATGKERELVAAISSDDSTYYADSVKGRFTISRDNAKNNVYLQMNSLTPEDTAVYYCAAVQLVPGYVDSNDYYWGQGTQVTVSS”, the “polyreactivity (PSR sort gate)” value is recorded as “low polyreactivity”.

Take “QVQLVESGGGLVQAGGRLRVSCAASGRTFYYYGMGWYRQAPGKESELVATISWSGGSTYYADSVKGRFTISRDNAKNTVYLQMNSLKPEDTEVYYCAADGQFLYDHIEVDYWGQGTQVTVSS”: the “polyreactivity (PSR sort gate)” value is “low polyreactivity”.

“QVQLVESAGGLVQAGGSLRLSCAASGIIFDDNAKGWYRQAPGKERELVAAISGRGGSTYYADSVKGRFTISRDNAKNTVYLQMNSLKPEDTAVYYCAASTVRRGTAPYSGGGDYWGQGTQVTVSS”: the “polyreactivity (PSR sort gate)” value is “high polyreactivity”.

As to “QVQLVESGGGLVQAGVSLRISCAPSGRTFIIYAMGRYRQAPGKERELVADISSGGSTYYADSVKGRFKISRDNAKNTVYLHMNSLKPEDTAVYYCAAQSWYYPIGYDYWGLGTQVTVSS”, the “polyreactivity (PSR sort gate)” value was “low polyreactivity”.

Take “QVQLVESGGGLVQAGGSLRLSCAASGFTFNSYDMYWVRQAPGKGLEWVSSINTNGGSTYYADSVKGRFTISRDNAKNTVYLQMNSLKPEDTAVYYCAADGDTVGHSYRYDYWGQGTQVTVSS”: the “polyreactivity (PSR sort gate)” value is “low polyreactivity”.

On to “QVQLLESGGGLVQAGGSLRLSCASSGRTFLTNAMGWYRQAPGKERELVAVITDGDTTYADSVKGRFTISRDNAKNTVYLLMNSLKPEDSAVYYCAADENYWSAGYDSWGLGTQVTVSS”, for which the “polyreactivity (PSR sort gate)” value is on record as “low polyreactivity”.

As for “QVQLVESGGGLVQAGGSLRLSCAASGSIFNKNTMGWYRQAPGKERELVAAISGRTGITTYADSVKGRFTISRDNAKNTVYLQMNSLKPEDTAVYYCNAANRWRGSYDYWGQGTQVTVSS”, the “polyreactivity (PSR sort gate)” value was “high polyreactivity”.

“QVQLVESGGGLVQAGGSLRLSCAASGRIFSNNAMGWYRQAPGKERELVAAISSSGSTYYADSVKGRFTISRDNAKNTVYLQMNSLKPEDTAVYYCAVVYGYPYLRGYVYGFNYWGQGTQVTVSS”: the “polyreactivity (PSR sort gate)” value was “low polyreactivity”.

Regarding “QVQLVESGGGLVQAGGSLRLSCAASGFTFGINAMGWYRQAPGQERELVASISSGSSTTYADSVKGRFTISRDNAKNTVYLQMNSLKPEDTAVYYCNARPFHIYWRYDYWGQGTQLTVSS”, the “polyreactivity (PSR sort gate)” value is listed as “low polyreactivity”.

Consider “QVHLVESGGGLVQAGGSLRLSCAASGSIFGYNTMGWYRQAPGKERELVAAISYSSGSTHYADSVKGRFTISRVNAKNTVYLQMNSLKPEDTAVYYSTSVRRWSFGYWGQGTQVTVSS”, for which the “polyreactivity (PSR sort gate)” value is “low polyreactivity”.

Regarding “QVQLVESAGGLVQAGGSLRLSCAASGSIINRYAMGWYRQAPGKERELVAAITQSGGRTYYADSVKGRFTISRDNAKNTVYLQMNRLKPDDTAGYYCNAFRWYLYDYWGQGTLVTVSS”, the “polyreactivity (PSR sort gate)” value is recorded as “high polyreactivity”.

Regarding “QVQLVESGGGLVQAGGSLRLSCAASGFTFKNNAMGWYRQAPGKEREFVASISSGSTNYADSVKGRFTISRDNAKYTVYLQMNSLKPEDTEVYYCIRAPYRYSEPDYRSDFWGQGTQVTVSS”, the “polyreactivity (PSR sort gate)” value is given as “low polyreactivity”.

As for “QVQLVESGGGLVQAGGSLRLSCASSGRTFRRYARGWYRQAPGKERELVATIRSGDNTNYADSVKGRFTISRDNAKNTVYLQMNSLKPEDTAVYYCNRSPKSGQVTYLYSVNAHYDYWGQGTQVTVSS”, the “polyreactivity (PSR sort gate)” value is listed as “low polyreactivity”.

As for “PVQLVESGGGLVQAGVSLRLSGAASGFIFYYYAMGWYSQAPGKEREFVAAISQSVGSTYYADSVKGRFTISRDNANNTVYLQMNSLKPADTAVYYCNARGWIPARGWDDYYWGQGTQVTVSS”, the “polyreactivity (PSR sort gate)” value was “high polyreactivity”.

Turning to “QVHLVESGGGLVQAGGSLRLSCAASGRIFGKYAMGWYRQAPGKERELVAAISSSGRTNSADSVKGRFTISRDNAKNTVYLQMNSLKPADTAVYYCAVRVLIHTNTRRLDYWGQGTQVTVSS”, the “polyreactivity (PSR sort gate)” value is “high polyreactivity”.

“QVQLVESGGGLVQAGGSLRLSCAASGSTFSPNAMGWYRQAPGKERELVAAITGGGSTYADSVKGRFTISRDNAKNTVYLQMNSLKPEDTAVYYFNADSYSFPYYYWGQGTQVTVSS”: the “polyreactivity (PSR sort gate)” value is given as “low polyreactivity”.

As to “QVQLVESGGGLVQAGGSLRLSCAASGRTFLYYAMGWYRQAPGKERELVASISTGGSTNYADSVKGRFTISRDNAKNTVYLQMNSLKPEDTAVYYCATEYPYSYFSIAHYHHGYWGQGTQVTVSS”, the “polyreactivity (PSR sort gate)” value was “low polyreactivity”.

Take “QVQLVESGGGLVQAGGSLRLSCAASGFIFARNVMGWSRQAPGKERELVAAISWSGGSTYYADSVKGRFTISRDNAKNTVYLQMNSLKPEDTAVYYCNKQFPFSKYYIMGYWGQGTQVTVSS”: the “polyreactivity (PSR sort gate)” value was “high polyreactivity”.

“QVQLVESGGGLVQAGGSLRLSCAASGITIRRYAMGWYRQAPGKERELVAAISTSGGGTYYADSVKGRFTISRDNAKNTVYLQMNSLKPEDTAVYYCAARYLGYLLSGYPPYDYWGQGSQVTVSS”: the “polyreactivity (PSR sort gate)” value is “high polyreactivity”.

As for “QVQLVESGAGIVQAGGSLRLSCAASGNSYGYAMGWYRQAPGKERELVAAITSGASDTYYADSVKGRFTISRDNAKKTVYLQMNSLKPEDTAVYYCAAVDYTNRYDPYDYWGQGTQVTVSS”, the “polyreactivity (PSR sort gate)” value is reported as “low polyreactivity”.
